Columns and labels:
[1] = target: plasma purified human VWF (human); experiment: SPR; Biacore 3000, 25 C; VWF immobilised by amine coupling (2100 RU); fH 5 to 320 nM in HBS with 50 uM ZnCl2, 30 uL/min; global fit to two-state model; apparent KD
[2] = target: recombinant VWF-A2 as used in the ELISA and Biacore experiments (human) (UniProt P04275); experiment: SPR; Biacore 3000, 25 C; VWF-A2 (1000 RU) or VWF-A3 (800 RU) immobilised; fH 40 to 640 nM, 20 uL/min; for VWF-A2 responses at equilibrium fitted to a one-site binding isotherm
[3] = target: recombinant His-tagged VWF-A1 domain (amino acids Q1238-D1471) (human); experiment: SPR; Biacore 3000, 25 C; VWF-A1 immobilised (1500 RU); fH 40 to 640 nM, 20 uL/min; fitted to two-state model; apparent KD
[4] = target: T1, plasma purified human factor H (human, UniProt P08603 19-1231); experiment: co-IP; plasma-purified fH (30 nM) incubated with His-tagged VWF-A1, -A2 (E. coli or HEK 293), -A3 or Myc-tagged VWF-BC (100 nM); precipitated with anti-fH antibody or IgG; blot anti-VWF; settings: both partners purified
T1 construct: complement factor H, human, purified from plasma (150 kD, 20 SCRs); also the endogenous protein in normal serum; also called fH; complement factor H; source: bought: Complement Technology Inc., plasma purified; endogenous, normal human serum
T1 sequence (P08603 19-1231): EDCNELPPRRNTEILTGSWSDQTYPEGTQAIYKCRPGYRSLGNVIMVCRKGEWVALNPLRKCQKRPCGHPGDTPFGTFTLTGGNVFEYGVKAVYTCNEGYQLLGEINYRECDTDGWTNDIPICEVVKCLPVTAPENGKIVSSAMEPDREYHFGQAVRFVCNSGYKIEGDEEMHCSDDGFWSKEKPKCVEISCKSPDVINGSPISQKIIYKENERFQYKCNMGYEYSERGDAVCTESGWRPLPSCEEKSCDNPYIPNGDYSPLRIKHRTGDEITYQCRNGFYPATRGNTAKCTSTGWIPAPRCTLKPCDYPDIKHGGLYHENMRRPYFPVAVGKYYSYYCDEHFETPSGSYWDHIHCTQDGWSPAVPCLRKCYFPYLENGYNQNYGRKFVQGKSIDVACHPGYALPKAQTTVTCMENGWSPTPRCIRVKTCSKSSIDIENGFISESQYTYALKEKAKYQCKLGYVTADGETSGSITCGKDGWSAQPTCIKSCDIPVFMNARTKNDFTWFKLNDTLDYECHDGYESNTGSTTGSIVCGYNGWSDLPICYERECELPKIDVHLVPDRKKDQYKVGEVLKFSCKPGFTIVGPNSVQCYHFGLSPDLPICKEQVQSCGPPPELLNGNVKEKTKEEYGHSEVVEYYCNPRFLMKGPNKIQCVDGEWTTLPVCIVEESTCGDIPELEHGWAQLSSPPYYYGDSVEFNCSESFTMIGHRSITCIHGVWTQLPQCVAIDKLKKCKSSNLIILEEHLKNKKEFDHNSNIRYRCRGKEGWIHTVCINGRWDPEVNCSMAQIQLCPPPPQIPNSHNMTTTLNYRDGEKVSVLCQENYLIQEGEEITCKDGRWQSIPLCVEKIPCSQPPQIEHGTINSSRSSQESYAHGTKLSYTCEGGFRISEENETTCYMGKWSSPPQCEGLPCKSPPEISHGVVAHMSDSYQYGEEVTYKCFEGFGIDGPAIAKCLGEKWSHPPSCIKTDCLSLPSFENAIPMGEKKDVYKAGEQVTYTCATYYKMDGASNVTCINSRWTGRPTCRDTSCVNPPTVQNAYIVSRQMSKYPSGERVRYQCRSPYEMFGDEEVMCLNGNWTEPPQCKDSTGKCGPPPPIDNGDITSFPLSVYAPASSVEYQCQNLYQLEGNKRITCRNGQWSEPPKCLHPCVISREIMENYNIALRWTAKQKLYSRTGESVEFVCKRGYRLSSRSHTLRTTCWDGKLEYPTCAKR

[5] = target: T2, truncated fH F3 with SCRs 1-15, amino acids M1-G928 (human, UniProt P08603 19-928); experiment: pull-down; GST-VWF-A2 (100 nM) incubated with recombinant F4, F3, F2 or F1 (30 nM each); glutathione agarose beads, overnight 4 C; blot polyclonal or monoclonal (90X) anti-fH; settings: both partners purified
T2 construct: signal peptide in the construct; complement factor H, human, SCRs 1-15, amino acids M1-G928, in pSecTag2B His tag vector; source: HEK 293, stably transfected, secreted into serum-free medium, purified (Ni-NTA)
T2 sequence (P08603 19-928): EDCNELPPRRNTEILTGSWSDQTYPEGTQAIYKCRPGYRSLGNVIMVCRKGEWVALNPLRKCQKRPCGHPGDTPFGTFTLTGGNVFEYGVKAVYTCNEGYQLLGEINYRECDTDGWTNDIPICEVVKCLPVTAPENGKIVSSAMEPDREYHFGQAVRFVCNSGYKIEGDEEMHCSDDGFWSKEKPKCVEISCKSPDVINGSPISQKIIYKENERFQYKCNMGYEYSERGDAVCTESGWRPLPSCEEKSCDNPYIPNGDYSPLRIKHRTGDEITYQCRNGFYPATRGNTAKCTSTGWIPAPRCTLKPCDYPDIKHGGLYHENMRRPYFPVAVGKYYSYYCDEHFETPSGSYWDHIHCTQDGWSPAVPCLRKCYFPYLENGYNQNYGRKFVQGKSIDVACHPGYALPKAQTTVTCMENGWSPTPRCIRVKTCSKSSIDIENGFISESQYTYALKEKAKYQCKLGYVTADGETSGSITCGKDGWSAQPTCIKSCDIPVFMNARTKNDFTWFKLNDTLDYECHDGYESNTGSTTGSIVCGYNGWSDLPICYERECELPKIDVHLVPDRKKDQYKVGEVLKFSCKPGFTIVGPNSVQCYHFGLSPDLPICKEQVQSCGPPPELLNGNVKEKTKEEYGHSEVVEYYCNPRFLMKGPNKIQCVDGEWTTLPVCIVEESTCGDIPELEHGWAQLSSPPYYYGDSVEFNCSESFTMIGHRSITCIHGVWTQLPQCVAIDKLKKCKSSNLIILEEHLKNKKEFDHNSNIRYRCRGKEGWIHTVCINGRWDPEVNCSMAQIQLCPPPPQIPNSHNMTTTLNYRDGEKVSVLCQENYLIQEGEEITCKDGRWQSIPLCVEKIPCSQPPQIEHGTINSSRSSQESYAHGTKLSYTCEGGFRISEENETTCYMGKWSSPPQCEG

[6] = target: T3, recombinant full-length wild type human fH (F4 with SCRs 1-20, amino acids M1-R1231) (human, UniProt P08603 19-1231); experiment: as above; settings: both partners purified
T3 construct: signal peptide in the construct; complement factor H, human, SCRs 1-20, amino acids M1-R1231, in pSecTag2B His tag vector; also called full-length recombinant fH; source: HEK 293, stably transfected, secreted into serum-free medium, purified (Ni-NTA)
T3 sequence (P08603 19-1231): as the sequence (P08603 19-1231) above

[7] = target: T4, truncated fH F2 with SCRs 1-10, amino acids M1-E625 (human, UniProt P08603 19-625); experiment: as above; settings: both partners purified
T4 construct: signal peptide in the construct; complement factor H, human, SCRs 1-10, amino acids M1-E625, in pSecTag2B His tag vector; source: HEK 293, stably transfected, secreted into serum-free medium, purified (Ni-NTA)
T4 sequence (P08603 19-625): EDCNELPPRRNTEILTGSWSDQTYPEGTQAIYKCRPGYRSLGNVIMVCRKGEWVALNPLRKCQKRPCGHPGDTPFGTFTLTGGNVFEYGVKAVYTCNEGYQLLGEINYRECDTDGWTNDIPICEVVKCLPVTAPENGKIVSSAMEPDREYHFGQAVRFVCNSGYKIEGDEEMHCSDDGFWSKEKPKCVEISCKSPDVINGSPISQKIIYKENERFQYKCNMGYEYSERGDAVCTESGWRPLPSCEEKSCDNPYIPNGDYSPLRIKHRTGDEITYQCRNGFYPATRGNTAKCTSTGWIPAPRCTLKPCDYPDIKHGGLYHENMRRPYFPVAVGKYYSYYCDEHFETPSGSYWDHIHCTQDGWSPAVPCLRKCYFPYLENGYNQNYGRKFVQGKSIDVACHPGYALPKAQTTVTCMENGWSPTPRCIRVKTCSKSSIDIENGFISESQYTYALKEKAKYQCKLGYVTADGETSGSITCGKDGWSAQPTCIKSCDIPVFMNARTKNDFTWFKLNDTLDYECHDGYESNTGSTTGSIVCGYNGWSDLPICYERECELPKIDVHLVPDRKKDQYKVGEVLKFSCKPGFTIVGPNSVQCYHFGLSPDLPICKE

## plasma purified human factor H (from UniProt P08603 19-1231) (natural protein)
[1]
  Kd: 32.9 nM
  ka1 (binding step, two-state model): 60000 M⁻¹ s⁻¹
  ka2 (forward rate, conformational change step): 0.007 s⁻¹
  kd1 (binding step, two-state model): 0.0158 s⁻¹
  kd2 (backward rate, conformational change step): 0.0009 s⁻¹
[2]
  Kd: 147 nM
[3]
  Kd: 161 nM
  ka1 (binding step, two-state model): 53600 M⁻¹ s⁻¹
  ka2 (forward rate, conformational change step): 0.00797 s⁻¹
  kd1 (binding step, two-state model): 0.0358 s⁻¹
  kd2 (backward rate, conformational change step): 0.00254 s⁻¹

B1: recombinant His-tagged VWF-A2 (amino acids P1480-G1672), purified from transfected HEK 293 cells (domain or fragment)
chain: PGLLGVSTLGPKRNSMVLDVAFVLEGSDKIGEADFNRSKEFMEEVIQRMDVGQDSIHVTVLQYSYMVTVEYPFSEAQSKGDILQRVREIRYQGGNRTNTGLALRYLSDHSFLVSQGDREQAPNLVYMVTGNPASDEIKRLPGDIQVVPIGVGPNANVQELERIGWPNAPILIQDFETLPREAPDLVLQRCCSG
notes: von Willebrand factor A2 domain, amino acids P1480-G1672, in pSecTag2B His-tag vector; also called His-tagged A2; source: HEK 293, purified (Ni-NTA)
[4]
  binding result: binds

B2: GST-VWF-A2 fusion protein (amino acids P1480-G1672) (domain or fragment)
chain: B1 chain
notes: von Willebrand factor A2 domain, amino acids P1480-G1672, in pGEX-2T GST vector; also called GST-A2; recombinant VWF-A2; source: E. coli, purified (glutathione agarose beads)
[5]
  binding result: binds
[6]
  binding result: binds
[7]
  binding result: binds

B3: recombinant His-tagged VWF-A2 (amino acids G1481-R1668), purified from transfected E. coli (domain or fragment)
chain: GLLGVSTLGPKRNSMVLDVAFVLEGSDKIGEADFNRSKEFMEEVIQRMDVGQDSIHVTVLQYSYMVTVEYPFSEAQSKGDILQRVREIRYQGGNRTNTGLALRYLSDHSFLVSQGDREQAPNLVYMVTGNPASDEIKRLPGDIQVVPIGVGPNANVQELERIGWPNAPILIQDFETLPREAPDLVLQR
notes: von Willebrand factor A2 domain, amino acids G1481-R1668; source: E. coli, purified (Ni-NTA)
[4]
  binding result: binds
